Results as given in paper PMC11729909, “FOXP1 phosphorylation antagonizes its O-GlcNAcylation in regulating ATR activation in response to replication stress” (The EMBO Journal, 2024).

Target: T1, His-tagged OGT (human, UniProt O15294 1-1046)
T1 construct: OGT, human, full length; Vector pet28a; also called His-OGT; pet28a-OGT; source: E. coli, purified
T1 sequence (looked up): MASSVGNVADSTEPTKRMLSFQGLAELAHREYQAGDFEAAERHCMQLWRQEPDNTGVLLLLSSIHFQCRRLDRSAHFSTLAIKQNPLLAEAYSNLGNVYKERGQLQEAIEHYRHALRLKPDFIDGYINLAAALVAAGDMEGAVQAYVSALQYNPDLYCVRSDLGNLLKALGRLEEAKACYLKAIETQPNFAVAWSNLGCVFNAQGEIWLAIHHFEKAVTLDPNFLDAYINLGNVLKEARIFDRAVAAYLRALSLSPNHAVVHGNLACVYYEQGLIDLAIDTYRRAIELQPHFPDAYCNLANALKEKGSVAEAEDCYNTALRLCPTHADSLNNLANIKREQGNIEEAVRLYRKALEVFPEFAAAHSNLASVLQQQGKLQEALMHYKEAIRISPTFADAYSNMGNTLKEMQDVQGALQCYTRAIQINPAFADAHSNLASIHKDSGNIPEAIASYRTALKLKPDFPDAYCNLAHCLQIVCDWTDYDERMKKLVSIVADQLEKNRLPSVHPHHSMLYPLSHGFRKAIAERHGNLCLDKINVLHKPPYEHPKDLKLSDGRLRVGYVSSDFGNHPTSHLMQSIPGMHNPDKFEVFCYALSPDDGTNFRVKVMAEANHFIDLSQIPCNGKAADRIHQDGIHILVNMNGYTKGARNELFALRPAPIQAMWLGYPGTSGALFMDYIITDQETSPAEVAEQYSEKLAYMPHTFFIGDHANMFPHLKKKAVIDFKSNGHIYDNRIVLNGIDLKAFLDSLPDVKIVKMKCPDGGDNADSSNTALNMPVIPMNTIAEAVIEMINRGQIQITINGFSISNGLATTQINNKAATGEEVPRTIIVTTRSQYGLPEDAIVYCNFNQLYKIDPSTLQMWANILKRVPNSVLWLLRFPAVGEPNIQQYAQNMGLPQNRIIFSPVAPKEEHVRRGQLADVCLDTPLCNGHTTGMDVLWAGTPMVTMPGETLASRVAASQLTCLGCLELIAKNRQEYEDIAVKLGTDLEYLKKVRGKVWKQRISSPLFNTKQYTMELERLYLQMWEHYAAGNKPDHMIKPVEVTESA
Test: pull-down; GST pull-down: His-tagged OGT incubated with wild-type GST-tagged FOXP1 or its mutant lacking AA 556–610, glutathione beads, immunoblot
Conditions: both partners purified

- binding result: binds
B1: GST-tagged FOXP1 (wild type, full length) (natural protein, human, UniProt Q9H334 1-677, looked up)
chain: MMQESGTETKSNGSAIQNGSGGSNHLLECGGLREGRSNGETPAVDIGAADLAHAQQQQQQALQVARQLLLQQQQQQQVSGLKSPKRNDKQPALQVPVSVAMMTPQVITPQQMQQILQQQVLSPQQLQVLLQQQQALMLQQQQLQEFYKKQQEQLQLQLLQQQHAGKQPKEQQQVATQQLAFQQQLLQMQQLQQQHLLSLQRQGLLTIQPGQPALPLQPLAQGMIPTELQQLWKEVTSAHTAEETTGNNHSSLDLTTTCVSSSAPSKTSLIMNPHASTNGQLSVHTPKRESLSHEEHPHSHPLYGHGVCKWPGCEAVCEDFQSFLKHLNSEHALDDRSTAQCRVQMQVVQQLELQLAKDKERLQAMMTHLHVKSTEPKAAPQPLNLVSSVTLSKSASEASPQSLPHTPTTPTAPLTPVTQGPSVITTTSMHTVGPIRRRYSDKYNVPISSADIAQNQEFYKNAEVRPPFTYASLIRQAILESPEKQLTLNEIYNWFTRMFAYFRRNAATWKNAVRHNLSLHKCFVRVENVKGAVWTVDEVEFQKRRPQKISGNPSLIKNMQSSHAYCTPLNAALQASMAENSIPLYTTASMGNPTLGNLASAIREELNGAMEHTNSNESDSSPGRSPMQAVHPVHVKEEPLDPEEAEGPLSLVTTANHSPDFDHDRDYEDEPVNEDME
notes: FOXP1, human, full length; Vector pGEX-4T-1; also called GST-FOXP1; pGEX-4T-1-FOXP1; source: E. coli, purified
